In the supplement of paper PMC11316812:
± gives the standard deviation of the averaged measurements.

How the values were obtained:
hTERT-HMEC = assay: percentage of EdU-negative (G0-arrested) nuclei per well, 72 h; higher = more G0 arrest; conditions: reference: sequence is the full UniProt precursor, the tested protein was the secreted form or ectodomain
MCF7 = assay: as above; conditions: reference: sequence is the full UniProt precursor, the tested protein was the secreted form or ectodomain
[1] = protein concentration 0.0225 µM
[2] = protein concentration 0.0075 µM
[3] = protein concentration 0.02025 µM
[4] = protein concentration 0.2025 µM
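Further: secreted proteins added to cultured cells, EdU pulse at the end, nuclei found by Hoechst imaging, EdU status from nuclear versus surrounding ring intensity ratio, PBS as neutral control.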

Row | Sequence | percentage of EdU-negative (hTERT-HMEC; [1]) | percentage of EdU-negative (hTERT-HMEC; protein concentration 0.225 µM) | percentage of EdU-negative (MCF7; [1]) | percentage of EdU-negative (MCF7; protein concentration 0.225 µM) | other results
1 | MKMRFLGLVVCLVLWTLHSEGSGGKLTAVDPETNMNVSEIISYWGFPSEEYLVETEDGYILCLNRIPHGRKNHSDKGPKPVVFLQHGLLADSSNWVTNLANSSLGFILADAGFDVWMGNSRGNTWSRKHKTLSVSQDEFWAFSYDEMAKYDLPASINFILNKTGQEQVYYVGHSQGTTIGFIAFSQIPELAKRIKMFFALGPVASVAFCTSPMAKLGRLPDHLIKDLFGDKEFLPQSAFLKWLGTHVCTHVILKELCGNLCFLLCGFNERNLNMSRVDVYTTHSPAGTSVQNMLHWSQAVKFQKFQAFDWGSSAKNYFHYNQSYPPTYNVKDMLVPTAVWSGGHDWLADVYDVNILLTQITNLVFHESIPEWEHLDFIWGLDAPWRLYNKIINLMRKYQ | 4.11 ± 0.31% | 5.43 ± 0.3% | 25.12 ± 0.15% | 27.7 ± 0.37% | 
2 | MKMRRYKLFLMFCMAGLCLISFLHFFKTLSYVTFPRELASLSPNLVSSFFWNNAPVTPQASPEPGGPDLLRTPLYSHSPLLQPLPPSKAAEELHRVDLVLPEDTTEYFVRTKAGGVCFKPGTKMLERPPPGRPEEKPEGANGSSARRPPRYLLSARERTGGRGARRKWVECVCLPGWHGPSCGVPTVVQYSNLPTKERLVPREVPRRVINAINVNHEFDLLDVRFHELGDVVDAFVVCESNFTAYGEPRPLKFREMLTNGTFEYIRHKVLYVFLDHFPPGGRQDGWIADDYLRTFLTQDGVSRLRNLRPDDVFIIDDADEIPARDGVLFLKLYDGWTEPFAFHMRKSLYGFFWKQPGTLEVVSGCTVDMLQAVYGLDGIRLRRRQYYTMPNFRQYENRTGHILVQWSLGSPLHFAGWHCSWCFTPEGIYFKLVSAQNGDFPRWGDYEDKRDLNYIRGLIRTGGWFDGTQQEYPPADPSEHMYAPKYLLKNYDRFHYLLDNPYQEPRSTAAGGWRHRGPEGRPPARGKLDEAEV |  |  |  |  | percentage of EdU-negative (hTERT-HMEC; [2]): 5.484 ± 0.037%; percentage of EdU-negative (hTERT-HMEC; protein concentration 0.075 µM): 8.45 ± 1.1%; percentage of EdU-negative (MCF7; [2]): 24.8 ± 2.6%; percentage of EdU-negative (MCF7; protein concentration 0.075 µM): 29.1 ± 1.5%
3 | MKMWLLVSHLVIISITTCLAEFTWYRRYGHGVSEEDKGFGPIFEEQPINTIYPEESLEGKVSLNCRARASPFPVYKWRMNNGDVDLTSDRYSMVGGNLVINNPDKQKDAGIYYCLASNNYGMVRSTEATLSFGYLDPFPPEERPEVRVKEGKGMVLLCDPPYHFPDDLSYRWLLNEFPVFITMDKRRFVSQTNGNLYIANVEASDKGNYSCFVSSPSITKSVFSKFIPLIPIPERTTKPYPADIVVQFKDVYALMGQNVTLECFALGNPVPDIRWRKVLEPMPSTAEISTSGAVLKIFNIQLEDEGIYECEAENIRGKDKHQARIYVQAFPEWVEHINDTEVDIGSDLYWPCVATGKPIPTIRWLKNGYAYHKGELRLYDVTFENAGMYQCIAENTYGAIYANAELKILALAPTFEMNPMKKKILAAKGGRVIIECKPKAAPKPKFSWSKGTEWLVNSSRILIWEDGSLEINNITRNDGGIYTCFAENNRGKANSTGTLVITDPTRIILAPINADITVGENATMQCAASFDPALDLTFVWSFNGYVIDFNKENIHYQRNFMLDSNGELLIRNAQLKHAGRYTCTAQTIVDNSSASADLVVRGPPGPPGGLRIEDIRATSVALTWSRGSDNHSPISKYTIQTKTILSDDWKDAKTDPPIIEGNMEAARAVDLIPWMEYEFRVVATNTLGRGEPSIPSNRIKTDGAAPNVAPSDVGGGGGRNRELTITWAPLSREYHYGNNFGYIVAFKPFDGEEWKKVTVTNPDTGRYVHKDETMSPSTAFQVKVKAFNNKGDGPYSLVAVINSAQDAPSEAPTEVGVKVLSSSEISVHWEHVLEKIVESYQIRYWAAHDKEEAANRVQVTSQEYSARLENLLPDTQYFIEVGACNSAGCGPPSDMIEAFTKKAPPSQPPRIISSVRSGSRYIITWDHVVALSNESTVTGYKVLYRPDGQHDGKLYSTHKHSIEVPIPRDGEYVVEVRAHSDGGDGVVSQVKISGAPTLSPSLLGLLLPAFGILVYLEF | 5.11 ± 0.28% | 5.87 ± 0.46% | 24.5 ± 1.2% | 26.2 ± 0.55% | 
4 | MKPAAREARLPPRSPGLRWALPLLLLLLRLGQILCAGGTPSPIPDPSVATVATGENGITQISSTAESFHKQNGTGTPQVETNTSEDGESSGANDSLRTPEQGSNGTDGASQKTPSSTGPSPVFDIKAVSISPTNVILTWKSNDTAASEYKYVVKHKMENEKTITVVHQPWCNITGLRPATSYVFSITPGIGNETWGDPRVIKVITEPIPVSDLRVALTGVRKAALSWSNGNGTASCRVLLESIGSHEELTQDSRLQVNISGLKPGVQYNINPYLLQSNKTKGDPLGTEGGLDASNTERSRAGSPTAPVHDESLVGPVDPSSGQQSRDTEVLLVGLEPGTRYNATVYSQAANGTEGQPQAIEFRTNAIQVFDVTAVNISATSLTLIWKVSDNESSSNYTYKIHVAGETDSSNLNVSEPRAVIPGLRSSTFYNITVCPVLGDIEGTPGFLQVHTPPVPVSDFRVTVVSTTEIGLAWSSHDAESFQMHITQEGAGNSRVEITTNQSIIIGGLFPGTKYCFEIVPKGPNGTEGASRTVCNRTVPSAVFDIHVVYVTTTEMWLDWKSPDGASEYVYHLVIESKHGSNHTSTYDKAITLQGLIPGTLYNITISPEVDHVWGDPNSTAQYTRPSNVSNIDVSTNTTAATLSWQNFDDASPTYSYCLLIEKAGNSSNATQVVTDIGITDATVTELIPGSSYTVEIFAQVGDGIKSLEPGRKSFCTDPASMASFDCEVVPKEPALVLKWTCPPGANAGFELEVSSGAWNNATHLESCSSENGTEYRTEVTYLNFSTSYNISITTVSCGKMAAPTRNTCTTGITDPPPPDGSPNITSVSHNSVKVKFSGFEASHGPIKAYAVILTTGEAGHPSADVLKYTYEDFKKGASDTYVTYLIRTEEKGRSQSLSEVLKYEIDVGNESTTLGYYNGKLEPLGSYRACVAGFTNITFHPQNKGLIDGAESYVSFSRYSDAVSLPQDPGVICGAVFGCIFGALVIVTVGGFIFWRKKRKDAKNNEVSFSQIKPKKSKLIRVENFEAYFKKQQADSNCGFAEEYEDLKLVGISQPKYAAELAENRGKNRYNNVLPYDISRVKLSVQTHSTDDYINANYMPGYHSKKDFIATQGPLPNTLKDFWRMVWEKNVYAIIMLTKCVEQGRTKCEEYWPSKQAQDYGDITVAMTSEIVLPEWTIRDFTVKNIQTSESHPLRQFHFTSWPDHGVPDTTDLLINFRYLVRDYMKQSPPESPILVHCSAGVGRTGTFIAIDRLIYQIENENTVDVYGIVYDLRMHRPLMVQTEDQYVFLNQCVLDIVRSQKDSKVDLIYQNTTAMTIYENLAPVTTFGKTNGYIA | 5.56 ± 1.9% | 5.79 ± 0.53% | 23.2 ± 1.6% | 22.4 ± 0.63% | 
5 | MKPALLEVMRMNRICRMVLATCLGSFILVIFYFQSMLHPVMRRNPFGVDICCRKGSRSPLQELYNPIQLELSNTAVLHQMRRDQVTDTCRANSATSRKRRVLTPNDLKHLVVDEDHELIYCYVPKVACTNWKRLMMVLTGRGKYSDPMEIPANEAHVSANLKTLNQYSIPEINHRLKSYMKFLFVREPFERLVSAYRNKFTQKYNISFHKRYGTKIIKRQRKNATQEALRKGDDVKFEEFVAYLIDPHTQREEPFNEHWQTVYSLCHPCHIHYDLVGKYETLEEDSNYVLQLAGVGSYLKFPTYAKSTRTTDEMTTEFFQNISSEHQTQLYEVYKLDFLMFNYSVPSYLKLE [Q9NPF2] | 5.07 ± 0.051% | 18.8 ± 3% | 23.2 ± 1.9% | 24.6 ± 1.8% | 
6 | MKPATGLWVWVSLLVAAGTVQPSDSQSVCAGTENKLSSLSDLEQQYRALRKYYENCEVVMGNLEITSIEHNRDLSFLRSVREVTGYVLVALNQFRYLPLENLRIIRGTKLYEDRYALAIFLNYRKDGNFGLQELGLKNLTEILNGGVYVDQNKFLCYADTIHWQDIVRNPWPSNLTLVSTNGSSGCGRCHKSCTGRCWGPTENHCQTLTRTVCAEQCDGRCYGPYVSDCCHRECAGGCSGPKDTDCFACMNFNDSGACVTQCPQTFVYNPTTFQLEHNFNAKYTYGAFCVKKCPHNFVVDSSSCVRACPSSKMEVEENGIKMCKPCTDICPKACDGIGTGSLMSAQTVDSSNIDKFINCTKINGNLIFLVTGIHGDPYNAIEAIDPEKLNVFRTVREITGFLNIQSWPPNMTDFSVFSNLVTIGGRVLYSGLSLLILKQQGITSLQFQSLKEISAGNIYITDNSNLCYYHTINWTTLFSTINQRIVIRDNRKAENCTAEGMVCNHLCSSDGCWGPGPDQCLSCRRFSRGRICIESCNLYDGEFREFENGSICVECDPQCEKMEDGLLTCHGPGPDNCTKCSHFKDGPNCVEKCPDGLQGANSFIFKYADPDRECHPCHPNCTQGCNGPTSHDCIYYPWTGHSTLPQHARTPLIAAGVIGGLFILVIVGLTFAVYVRRKSIKKKRALRRFLETELVEPLTPSGTAPNQAQLRILKETELKRVKVLGSGAFGTVYKGIWVPEGETVKIPVAIKILNETTGPKANVEFMDEALIMASMDHPHLVRLLGVCLSPTIQLVTQLMPHGCLLEYVHEHKDNIGSQLLLNWCVQIAKGMMYLEERRLVHRDLAARNVLVKSPNHVKITDFGLARLLEGDEKEYNADGGKMPIKWMALECIHYRKFTHQSDVWSYGVTIWELMTFGGKPYDGIPTREIPDLLEKGERLPQPPICTIDVYMVMVKCWMIDADSRPKFKELAAEFSRMARDPQRYLVIQGDDRMKLPSPNDSKFFQNLLDEEDLEDMMDAEEYLVPQAFNIPPPIYTSRARIDSNRSEIGHSPPPAYTPMSGNQFVYRDGGFAAEQGVSVPYRAPTSTIPEAPVAQGATAEIFDDSCCNGTLRKPVAPHVQEDSSTQRYSADPTVFAPERSPRGELDEEGYMTPMRDKPKQEYLNPVEENPFVSRRKNGDLQALDNPEYHNASNGPPKAEDEYVNEPLYLNTFANTLGKAEYLKNNILSMPEKAKKAFDNPDYWNHSLPPRSTLQHPDYLQEYSTKYFYKQNGRIRPIVAENPEYLSEFSLKPGTVLPPPPYRHRNTVV |  |  |  |  | percentage of EdU-negative (hTERT-HMEC; [3]): 4.75 ± 0.55%; percentage of EdU-negative (hTERT-HMEC; [4]): 7.8 ± 0.72%; percentage of EdU-negative (MCF7; [3]): 26.2 ± 1.2%; percentage of EdU-negative (MCF7; [4]): 25.4 ± 1.2%
7 | MKPLLVVFVFLFLWDPVLAGINSLSSEMHKKCYKNGICRLECYESEMLVAYCMFQLECCVKGNPAP [Q4QY38] | 4.56 ± 0.45% | 5.39 ± 1.7% | 26.33 ± 0.082% | 27 ± 0.67% | 
8 | MKPNIIFVLSLLLILEKQAAVMGQKGGSKGRLPSEFSQFPHGQKGQHYSGQKGKQQTESKGSFSIQYTYHVDANDHDQSRKSQQYDLNALHKTTKSQRHLGGSQQLLHNKQEGRDHDKSKGHFHRVVIHHKGGKAHRGTQNPSQDQGNSPSGKGISSQYSNTEERLWVHGLSKEQTSVSGAQKGRKQGGSQSSYVLQTEELVANKQQRETKNSHQNKGHYQNVVEVREEHSSKVQTSLCPAHQDKLQHGSKDIFSTQDELLVYNKNQHQTKNLNQDQQHGRKANKISYQSSSTEERRLHYGENGVQKDVSQSSIYSQTEEKAQGKSQKQITIPSQEQEHSQKANKISYQSSSTEERRLHYGENGVQKDVSQRSIYSQTEKLVAGKSQIQAPNPKQEPWHGENAKGESGQSTNREQDLLSHEQKGRHQHGSHGGLDIVIIEQEDDSDRHLAQHLNNDRNPLFT |  |  |  |  | percentage of EdU-negative (hTERT-HMEC; protein concentration 0.005 µM): 6.42 ± 0.18%; percentage of EdU-negative (hTERT-HMEC; protein concentration 0.05 µM): 6.06 ± 1.2%; percentage of EdU-negative (MCF7; protein concentration 0.005 µM): 28.4 ± 1.1%; percentage of EdU-negative (MCF7; protein concentration 0.05 µM): 25.85 ± 0.061%
